This experiment has as its target human GPRC5D protein (human) (UniProt Q9NZD1). Description: FACS, subclone culture supernatant on NCI-H929 cells (medium alone: MFI 8242). For orientation: Flow cytometry measures light scatter and fluorescence of single cells or particles in a stream.

Chain of human GPRC5D protein (human) (Q9NZD1 whole entry): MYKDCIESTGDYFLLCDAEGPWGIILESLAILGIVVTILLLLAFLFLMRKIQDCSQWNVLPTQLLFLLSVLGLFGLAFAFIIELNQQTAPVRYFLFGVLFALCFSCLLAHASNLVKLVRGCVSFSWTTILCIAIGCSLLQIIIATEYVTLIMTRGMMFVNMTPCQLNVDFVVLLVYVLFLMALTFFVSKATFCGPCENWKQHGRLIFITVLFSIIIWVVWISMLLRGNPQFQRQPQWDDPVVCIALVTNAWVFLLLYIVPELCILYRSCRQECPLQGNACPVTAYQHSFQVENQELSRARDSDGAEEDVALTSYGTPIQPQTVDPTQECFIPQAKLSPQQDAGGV

B1: mu-131 (antibody, V domains shown)
VH: EVQLQQSGPELVKPGASVKMSCKASGYTFTNYVMHWVKQKPGQGLEWIGYFNPYNDGTNYNEKFKGKATLTSDKSSNTAYMELSSLTSEDSAVYYCARGGVRRYFDVWGAGTTVTVSS
VL: DIQMTQSPSSLSASLGERVSLTCRASQDIGSNLNWLQLGPDGTIKRLIYATFSLDSGVPKRFSGSRSGSDYSLTISSLESEDFVDYYCQQYANFPPTFGGGTKLEIK
Regarding B1, the MFI amounted to 12800.

B2: mu-105 (antibody, V domains shown)
VH: EVQLQQSGPELVKPGASVKMSCKASGYTFTDYYMNWVKQSHGKSLEWIGYIYPNNGGTGYNQRFKGKATLTADKSSSTAYMELRSLTSEDSAVYYCARWGGTRLGYYAMDYWGQGTSVTVSS
VL: DIVMTQSQKFMSTSVGDRVSVTCKASQNVGTNVVWYQQKPGQSPKLLIYWASTRHTGVPDRFTGSGSGTDFTLTISNVQSEDLADYFCQQYSRYPYTFGGGTKLEIK
B2: the MFI came to 13200.

B3: mu-89 (antibody, V domains shown)
VH: EVQLVESGGDLVKPGGSLKLSCAASGFTFSSYGMSWVRQTPDKRLEWVATISSGGSYTYYPDSVKGRFTFSRDNAKNTLYLQMSSLKSEDTAMYYCVRQALRYHMDSWGQGTSVTVSS
VL: DIVMTQSQKFMSTSVGDRVSVTCKASQNVGTNVAWYQQKPGQSPKALIYSASYRYSGVPDRFTGSGSGTDFTLTISNVQSEDLADFFCQQYYSYPWTFGGGTKLEIK
On to B3, for which the MFI worked out at 11900.

B4: mu-128 (antibody, V domains shown)
VH: DVQLVESGGGLVQPGGSRKVSCAASGFTFSSFGMHWVRQAPEKGLEWVAYISRGSSTIYYADTVKGRFTISRDNPKNTLFLQMTSLRSEDTAMYYCARSGYGSSSYYFDYWGQGTTLTVSS
VL: ENVLTQSPAIMSASPREKVTMTCRASSSIRSSYLHWYQQKSGASPKLWIYSTSNLASGVPARFSGSGSGTSYSLTISSVEAEDAATYYCQQFSGYPLTFGGGTKLEIK
Regarding B4, the MFI was 15700.
